The record followed here is patent US20190309059A1 (SHANGHAI PHARMAEXPLORER, published 2019).

For test [1], the target named is mouse IL-13 (purchased from sino biological) (mouse) (UniProt P20109). The test can be described thus: ELISA, mouse IL-13; antibody at 0.11 nM.
For test [2] the target is unchanged. Briefly: ELISA, mouse IL-13; antibody at 0.53 nM.
For test [3] the target is unchanged. Briefly: ELISA, mouse IL-13; antibody at 2.67 nM.
For test [4] the target is unchanged. The test can be described thus: ELISA, mouse IL-13; antibody at 0.000 nM.
Test [5] shares this target. Briefly: ELISA, mouse IL-13; antibody at 0.001 nM.
For test [6] the target is unchanged. The test can be described thus: ELISA, mouse IL-13; antibody at 0.004 nM.
Test [7] has the same target. Briefly: ELISA, mouse IL-13; antibody at 0.021 nM.
Test [8] has as its target cynomolgus IL-13 (purchased from sino biological) (cynomolgus) (UniProt Q0PW92). Briefly: ELISA, cynomolgus IL-13; antibody at 2.67 nM.
The target is the same in test [9]. Briefly: ELISA, cynomolgus IL-13; antibody at 0.53 nM.
Test [10] has the same target. Briefly: ELISA, cynomolgus IL-13; antibody at 0.004 nM.
The target is the same in test [11]. Briefly: ELISA, cynomolgus IL-13; antibody at 0.021 nM.
The target of test [12] is T1, mouse IL-13 (purchased from sino biological) (mouse, UniProt P20109 19-131).
T1 chain: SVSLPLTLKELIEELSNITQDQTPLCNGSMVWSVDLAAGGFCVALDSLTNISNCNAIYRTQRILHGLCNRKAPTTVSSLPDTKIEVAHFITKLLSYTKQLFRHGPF
The test can be described thus: ELISA, mouse IL-13; antibody at 0.11 nM.

Test [13] addresses T1, mouse IL-13 (purchased from sino …). Briefly: ELISA, mouse IL-13; antibody at 0.004 nM.
Test [14] shares this target. Briefly: ELISA, mouse IL-13; antibody at 0.021 nM.

Sequence of cynomolgus IL-13 (purchased from sino biological) (cynomolgus) (Q0PW92 entry or part of it): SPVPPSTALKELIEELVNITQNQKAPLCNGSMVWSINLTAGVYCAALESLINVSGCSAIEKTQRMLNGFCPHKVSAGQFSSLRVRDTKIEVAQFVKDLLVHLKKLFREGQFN

In the case of IgG control (mouse IgG) (antibody), the OD450 nm in [1] was 0.08; in test [2], 0.08; in test [3], 0.08; in [4], 0.1; in test [5] it was 0.07; in test [6] it was 0.07. In addition, the OD450 nm in [7] came to 0.07; in test [8], 0.1; in [9], 0.08; in [10], 0.061; in test [11] it was 0.068.

B1: 28A2E11 (lead antibody, mouse hybridoma) (antibody, V domains shown)
VH: EVQLQQSGAELVKPGASVKLSCTASGFNIKDYYMHWVKQRTEQGLEWIGRIDPEDGETKYAPKFHDKATLTADTSSNTAYLQFSSLASEDTAVYYCTRYDYYGPFAYWGQGTLVTVSA
VL: QAVVTQESVLTTSPGETVTLTCRSSTGAVTTSNYANWVQEKPDHLFTGLIGGTNNRAPGVPARFSGSLIGDKAALTITGAQTEDEAIYFCALWYINHFIFGSGTKVTVL
notes: Mouse monoclonal antibody purified from hybridoma supernatant on Protein G
As to B1, the OD450 nm in test [12] was found to be 0.07; in [13], 0.07; in [14], 0.08.

B2: 29D9H8 (lead antibody, mouse hybridoma) (antibody, V domains shown)
VH: QVQLQQSGAELVRPGASVTLSCKASGYTFTDYEMHWVKQTPVHGLEWIGGIDPETGGTASNQKFKGKAILTADKSSSTAYMELRSLTSEDSAVYYCTSGDYFGGGPFAYWGQGTLVTVSA
VL: DIKMTQSPSSMYASLGERVTITCKASQDINSYLSWFQQKPGKSPKTLIYRANRLVDGVPSRFSGSGSGQDYSLTISSLDYEDMGIYYCLQYDEFPYTFGGGTKLEIK
notes: as for B1
On to B2, for which the results for the OD450 nm in test [12], in test [13] and in test [14] were 0.07, 0.07 and 0.06, respectively.
